Results taken from publication PMC5141367, “Structural decoding of netrin-4 reveals a regulatory function towards mature basement membranes” (Nature Communications, 2016).

T1: laminin γ1 short arm fragment (γ1LN-LEa1-4) (Mus musculus, UniProt P02468 34-492)
T1 chain: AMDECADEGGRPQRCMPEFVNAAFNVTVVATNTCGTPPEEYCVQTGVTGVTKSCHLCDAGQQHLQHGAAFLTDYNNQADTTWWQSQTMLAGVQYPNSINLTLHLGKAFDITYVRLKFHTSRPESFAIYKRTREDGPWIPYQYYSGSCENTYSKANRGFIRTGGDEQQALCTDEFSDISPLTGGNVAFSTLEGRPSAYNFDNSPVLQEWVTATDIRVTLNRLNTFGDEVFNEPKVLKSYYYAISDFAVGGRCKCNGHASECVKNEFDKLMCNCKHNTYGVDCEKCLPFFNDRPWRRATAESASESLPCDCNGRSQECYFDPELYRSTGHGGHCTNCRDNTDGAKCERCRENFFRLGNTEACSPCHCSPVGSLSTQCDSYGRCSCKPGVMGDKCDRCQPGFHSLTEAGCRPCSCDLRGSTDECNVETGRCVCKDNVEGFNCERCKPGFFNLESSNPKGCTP

B1: full-length Net4 (Net4-FL) (natural protein, Mus musculus, UniProt Q9JI33 20-628, looked up)
chain: LNGVAGANSRCEKACNPRMGNLALGRKLRADTMCGQNATELFCFYSENADLTCRQPKCDKCNAAHSHLAHPPSAMADSSFRFPRTWWQSAEDVHREKIQLDLEAEFYFTHLIMVFKSPRPAAMVLDRSQDFGKTWKPYKYFATNCSATFGLEDDVVKKGAICTSRYSNPFPCTGGEVIFRALSPPYDIENPYSAKVQEQLKITNLRVRLLKRQSCPCQINDLNAKPHHFMHYAVYDFIVKGSCFCNGHADQCLPVEGFRPIKAPGAFHVVHGRCMCKHNTAGSHCQHCAPLYNDRPWEAADGRTGAPNECRTCKCNGHADTCHFDVNVWEASGNRSGGVCNNCQHNTEGQHCQRCKPGFYRDLRRPFSAPDACKACSCHPVGSAILPFSSVTFCDPSNGDCPCKPGVAGPHCDRCMVGYWGFGDYGCRPCDCAGSCDPLTGDCISSNADVDWYHEVPAFHSMHNKSEPSWEWEDEQGFSALRHSGKCECKEQVLGNPKAFCGMKYSYVLKIKILSAHDKGSHAEVNVKIKKVLKSTKLKILRGKRTLYPESWTNRGCTCPILNPGLEYLVAGHEDVRTGKLIVNMKSFVQHWKPALGRRVMHILKRDCV
notes: also called netrin-4; wild-type Net4; source: HEK293, stably transfected, purified (streptactin-sepharose, thrombin digestion, SEC); not shown: double Strep II, N-terminal, cleaved
B2: laminin γ1 short arm fragment (γ1LN-LEa1-4) (domain or fragment, Mus musculus, UniProt P02468 34-492, looked up)
chain: T1 chain
notes: also called Lmγ1; N-terminal laminin γ1 fragment; source: HEK293, stably transfected, purified (streptactin-sepharose, thrombin digestion, SEC); not shown: double Strep II, N-terminal, cleaved
B3: Net4 lacking the C-terminal domain (Net4-ΔC) (domain or fragment, Mus musculus, UniProt Q9JI33 20-462, looked up)
chain: LNGVAGANSRCEKACNPRMGNLALGRKLRADTMCGQNATELFCFYSENADLTCRQPKCDKCNAAHSHLAHPPSAMADSSFRFPRTWWQSAEDVHREKIQLDLEAEFYFTHLIMVFKSPRPAAMVLDRSQDFGKTWKPYKYFATNCSATFGLEDDVVKKGAICTSRYSNPFPCTGGEVIFRALSPPYDIENPYSAKVQEQLKITNLRVRLLKRQSCPCQINDLNAKPHHFMHYAVYDFIVKGSCFCNGHADQCLPVEGFRPIKAPGAFHVVHGRCMCKHNTAGSHCQHCAPLYNDRPWEAADGRTGAPNECRTCKCNGHADTCHFDVNVWEASGNRSGGVCNNCQHNTEGQHCQRCKPGFYRDLRRPFSAPDACKACSCHPVGSAILPFSSVTFCDPSNGDCPCKPGVAGPHCDRCMVGYWGFGDYGCRPCDCAGSCDPLTGDC
notes: lacks domain C); Two alternative constructs were cloned: one with an N-terminal His8 tag, one with an N-terminal double Strep II tag (not both on one chain); the tag was removed by thrombin; also called netrin-4; wild-type Net4; source: HEK293, stably transfected, purified (streptactin-sepharose or nickel TALON beads, thrombin digestion, SEC); not shown: double Strep II, N-terminal, cleaved; …
B4: N-terminal laminin fragment α1LN-LEa1-4 (domain or fragment, Homo sapiens, UniProt P25391 18-453, looked up)
chain: RQRGLFPAILNLASNAHISTNATCGEKGPEMFCKLVEHVPGRPVRNPQCRICDGNSANPRERHPISHAIDGTNNWWQSPSIQNGREYHWVTITLDLRQVFQVAYVIIKAANAPRPGNWILERSLDGTTFSPWQYYAVSDSECLSRYNITPRRGPPTYRADDEVICTSYYSRLVPLEHGEIHTSLINGRPSADDLSPKLLEFTSARYIRLRLQRIRTLNADLMTLSHREPKELDPIVTRRYYYSIKDISVGGMCICYGHASSCPWDETTKKLQCQCEHNTCGESCNRCCPGYHQQPWRPGTVSSGNTCEACNCHNKAKDCYYDESVAKQKKSLNTAGQFRGGGVCINCLQNTMGINCETCIDGYYRPHKVSPYEDEPCRPCNCDPVGSLSSVCIKDDLHSDLHNGKQPGQCPCKEGYTGEKCDRCQLGYKDYPTCVS
notes: also called laminin α1; source: HEK293, stably transfected, purified (streptactin-sepharose, thrombin digestion, SEC); not shown: double Strep II, N-terminal, cleaved
B5: Net4-ΔC^ΔKAPGA (domain or fragment, Mus musculus, UniProt Q9JI33 20-462, looked up)
chain: LNGVAGANSRCEKACNPRMGNLALGRKLRADTMCGQNATELFCFYSENADLTCRQPKCDKCNAAHSHLAHPPSAMADSSFRFPRTWWQSAEDVHREKIQLDLEAEFYFTHLIMVFKSPRPAAMVLDRSQDFGKTWKPYKYFATNCSATFGLEDDVVKKGAICTSRYSNPFPCTGGEVIFRALSPPYDIENPYSAKVQEQLKITNLRVRLLKRQSCPCQINDLNAKPHHFMHYAVYDFIVKGSCFCNGHADQCLPVEGFRPIFHVVHGRCMCKHNTAGSHCQHCAPLYNDRPWEAADGRTGAPNECRTCKCNGHADTCHFDVNVWEASGNRSGGVCNNCQHNTEGQHCQRCKPGFYRDLRRPFSAPDACKACSCHPVGSAILPFSSVTFCDPSNGDCPCKPGVAGPHCDRCMVGYWGFGDYGCRPCDCAGSCDPLTGDC
notes: the limits of the deletion are printed for the combined mutant; probably made like its parent m1; also called Net4 mutant in which the specific loop b (KAPGA) within LE1 was deleted

Key:
laminin γ1 = laminin γ1 (UniProt P02468); conditions: cited from earlier work
[1] = biological target: laminin γ1 short arm fragment (γ1LN-LEa1-4) (Mus musculus) (UniProt P02468); assay: not stated; binding assay of Supplementary Fig. 6c; method not given
[2] = biological target: T1, laminin γ1 short arm fragment …; assay: MST
[3] = biological target: B2; assay: cross-linking; increasing crosslinker concentration; Supplementary Fig. 5a; conditions: both partners purified
[4] = biological target: the molecule itself; assay: as above
[5] = biological target: T2, N-terminal laminin fragment β1LN-LEa1-4 (Homo sapiens, UniProt P07942 31-509); assay: SEC; analytical size-exclusion chromatography of single proteins and of mixtures; conditions: both partners purified
T2 construct: also called laminin β1; Lmβ1; source: HEK293, stably transfected, purified (streptactin-sepharose, thrombin digestion, SEC); not shown: double Strep II, N-terminal, cleaved
T2 sequence (P07942 31-509): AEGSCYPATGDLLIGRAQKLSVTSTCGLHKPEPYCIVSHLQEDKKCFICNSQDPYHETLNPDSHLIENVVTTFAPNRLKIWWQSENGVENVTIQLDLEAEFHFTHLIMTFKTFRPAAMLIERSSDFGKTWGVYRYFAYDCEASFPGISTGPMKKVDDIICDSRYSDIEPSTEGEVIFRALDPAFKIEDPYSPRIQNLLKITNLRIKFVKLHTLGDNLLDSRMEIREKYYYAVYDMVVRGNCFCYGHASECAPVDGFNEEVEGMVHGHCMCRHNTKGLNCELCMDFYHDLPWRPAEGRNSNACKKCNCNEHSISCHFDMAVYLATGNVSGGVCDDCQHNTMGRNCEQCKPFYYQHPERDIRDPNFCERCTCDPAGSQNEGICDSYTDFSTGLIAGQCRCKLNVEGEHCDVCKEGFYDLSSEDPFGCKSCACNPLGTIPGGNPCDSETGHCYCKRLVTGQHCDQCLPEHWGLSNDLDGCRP

[6] = biological target: B1; assay: MST; 2 nM labelled γ1LN-LEa1-4; Net4 0.08-1,000 nM, Net4 mutants 0.45-4,000 nM; 50 mM Tris/HCl pH 7.4, 150 mM NaCl, 2 mM CaCl2, 3% BSA; NanoTemper Monolith NT.115; conditions: both partners purified
[7] = biological target: B2; assay: rotary-shadowing electron microscopy; images of the Net4-ΔC-γ1LN-LEa1-4 complex; conditions: both partners purified
[8] = biological target: B2; assay: MST; 2 nM labelled γ1LN-LEa1-4; Net4 0.08-1,000 nM, Net4 mutants 0.45-4,000 nM; 50 mM Tris/HCl pH 7.4, 150 mM NaCl, 2 mM CaCl2, 3% BSA; NanoTemper Monolith NT.115; conditions: both partners purified
[9] = biological target: B2; assay: SEC; analytical size-exclusion chromatography of single proteins and of mixtures; conditions: both partners purified
[10] = biological target: B2; assay: not stated; binding assays of Supplementary Fig. 6a,b; methods not shown (the author contributions name SPR measurements); conditions: both partners purified

In the case of laminin β1 (from UniProt P02469), the Kd (laminin γ1) is listed as 5000 nM.

Work on “Net4-ΔC^E195A,R199A (from UniProt Q9JI33 20-462) (domain or fragment)” yielded a Kd [1] of 66 nM.

With B1 the Kd [2] was 2.26 nM, the “stoichiometry N” value [3] was 1 and the “stoichiometry N” value [4] was 2.

With B2 the binding result [5] was “binds” and the Kd [6] was about 2 nM.

In the case of B3, the “stoichiometry N” value [7] is reported as 1, the Kd [8] is reported as about 2 nM and the Kd [2] is reported as 2.29 nM.

B4: binds [9].

B5 gave a Kd [10] of about 50 nM.
